Substitutions are numbered along the chain they refer to. Where two headings read alike, the source gives them in different places.

As usually defined, the Kd is the equilibrium constant for the complex coming apart. One may read the koff as the rate constant with which the complex falls apart. As usually defined, the kon is a measure of how fast the partners come together.

Assay [1] addresses T1, full-length human Tau (Tau441; 2N4R), recombinant (human, UniProt P10636 1-758).
T1 construct: made in E. coli, His6-Smt3 tag removed; biotinylated through amines for Octet and phage work; also called r-Tau; recombinant Tau
Nature of the assay: SPR Biacore.

The target in assay [2] is T1, full-length human Tau (Tau441; 2N4R), …. Nature of the assay: SPR Biacore. How it is done: IgG was purified with protein A affinity chromatography. The affinity of each hulC7 IgG variant for r-Tau was determined by surface plasmon resonance using a Biacore™ T200 instrument. Biacore™ Series S CM5 sensor chips were immobilized with monoclonal mouse anti-human IgG (Fc) antibody (Human antibody capture kit from GE Healthcare). Serial 3-fold dilutions of each hulC7 variant were injected at a flow rate of […]. Each sample was analyzed with 3-minute association and 10-minute dissociation. After each injection, the chip was regenerated using 3 M MgCl₂. Binding response was corrected by subtracting the RU from a flow cell capturing an irrelevant IgG at similar density. A 1:1 Languir model of simultaneous fitting of kₒₙ and koff was used for kinetics analysis.
A further round of affinity maturation was performed by mutating certain amino acids in selected CDR-H1, CDR-L1, and CDR-L3 sequences from Table 9A, as well as the sequence of CDR-H2 (SEQ ID NO:23) of hulC7.v2. Sequence changes were identified in each CDR (Table 9B). Binding affinities were evaluated using Biacore™ (Table 10B).
This is another data set of the same source. A general note: SPR reads the build-up and loss of mass on a sensor chip optically.

T1 sequence (P10636 other isoform, or with tags, fused parts or gaps limits assumed): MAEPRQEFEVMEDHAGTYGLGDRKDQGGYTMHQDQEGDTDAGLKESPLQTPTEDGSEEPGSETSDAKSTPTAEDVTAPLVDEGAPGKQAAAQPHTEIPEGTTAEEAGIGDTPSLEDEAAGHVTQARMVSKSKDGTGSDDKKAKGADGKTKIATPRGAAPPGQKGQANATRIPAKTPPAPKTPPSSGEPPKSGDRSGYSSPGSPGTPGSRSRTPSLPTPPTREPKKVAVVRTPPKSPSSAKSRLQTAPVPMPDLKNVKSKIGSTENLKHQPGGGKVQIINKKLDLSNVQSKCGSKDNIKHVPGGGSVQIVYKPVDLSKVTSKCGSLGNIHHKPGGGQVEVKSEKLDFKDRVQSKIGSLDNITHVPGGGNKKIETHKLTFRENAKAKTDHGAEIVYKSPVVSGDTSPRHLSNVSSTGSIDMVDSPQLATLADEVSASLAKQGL

B1: Clone with H1_1 (antibody, V domains shown)
VH: EVQLLESGGGLVQPGGSLRLSCAASGFKFSRVGVSWVRQAPGKGLEWVASISGDGGSYIHYADSVKGRFTISRDNSKNTLYLQMNSLRAEDTAVYYCARLPYWGQGTLVTVSS
VL: DIVMTQSPDSLAVSLGERATINCKSSQSLLNSGNQKNYLTWYQQKPGQPPKLLIYWASTRESGVPDRFSGSGSGTDFTLTISSLQAEDVAVYYCQQYNSYPLTFGQGTKVEIKR
Regarding B1, in assay [1], the Kd turned out to be 0.122 nM, the koff came out at 0.000252 s⁻¹ and the kon stood at 2.07e+06 M⁻¹ s⁻¹.

B2: Clone with L1_3 (antibody, V domains shown)
VH: B1 VH with K28T, R31S, V32Y, V34M
VL: DIVMTQSPDSLAVSLGERATINCKSSQSLHRSGTQKDYLVWYQQKPGQPPKLLIYWASTRESGVPDRFSGSGSGTDFTLTISSLQAEDVAVYYCQQYNSYPLTFGQGTKVEIK
notes: IgG based on hu1C7.v2
On to B2, for which, in assay [1], the Kd was 0.133 nM, the koff was 0.000286 s⁻¹ and the kon was 2.15e+06 M⁻¹ s⁻¹. Besides, in assay [2], the Kd stood at 0.109 nM, the off-rate constant (koff) was determined as 0.000133 s⁻¹ and the kon came to 1.22e+06 M⁻¹ s⁻¹.

B3: Clone with H1_2 (antibody, V domains shown)
VH: B1 VH with K28T, V34T
VL: B1 VL
notes: IgG based on hu1C7.v2
Take B3: in assay [1], the Kd came out at 0.092 nM, the koff amounted to 0.000144 s⁻¹ and the kon was 1.56e+06 M⁻¹ s⁻¹. Besides, in assay [2], the Kd was 0.478 nM, the koff amounted to 0.000132 s⁻¹ and the kon came to 276000 M⁻¹ s⁻¹.

B4: Clone with L1_3 and H1_4 (antibody, V domains shown)
VH: B1 VH with K28R, R31G, V32P, V34M
VL: B2 VL
notes: IgG based on hu1C7.v2
With B4, in assay [1], the dissociation constant (Kd) came to 0.038 nM, the koff turned out to be 8.72e-05 s⁻¹ and the kon was 2.28e+06 M⁻¹ s⁻¹.

B5: Clone with L1_3 and H3_1 (antibody, V domains shown)
VH: B1 VH with K28T, R31S, V32Y, V34M, R99K, Y102F
VL: B2 VL
notes: IgG based on hu1C7.v2
For the molecule B5, in assay [1], the Kd turned out to be 0.062 nM, the koff turned out to be 0.000145 s⁻¹ and the kon is 2.36e+06 M⁻¹ s⁻¹.

B6: Clone with H1_5 (antibody, V domains shown)
VH: B1 VH with G26V, F27I, F29W, S30R, R31I, V32Y, V34M
VL: B1 VL
Turning to B6, in assay [1], the Kd stood at 0.183 nM, the koff was found to be 0.000244 s⁻¹ and the kon turned out to be 1.34e+06 M⁻¹ s⁻¹.

B7: Clone with L1_1 (antibody, V domains shown)
VH: B1 VH with K28T, R31S, V32Y, V34M
VL: B1 VL with Q27H, L30Y, N31S, G33R, N34R, Q35H, N37H, T40A
As to B7, in assay [1], the Kd was 0.192 nM, the koff came out at 0.000297 s⁻¹ and the kon is 1.54e+06 M⁻¹ s⁻¹.

B8: Clone with H1_4 (antibody, V domains shown)
VH: B1 VH with K28R, R31G, V32P, V34M
VL: B1 VL
notes: IgG based on hu1C7.v2
In the case of B8, in assay [1], the Kd came out at 0.174 nM, the koff came out at 0.00023 s⁻¹ and the kon is 1.32e+06 M⁻¹ s⁻¹. For the same molecule, in assay [2], the Kd turned out to be 0.333 nM, the koff came to 0.000188 s⁻¹ and the kon was 564000 M⁻¹ s⁻¹.

B9: Clone with L1_3 and H1_1 (antibody, V domains shown)
VH: B1 VH
VL: B2 VL
notes: IgG based on hu1C7.v2
As for B9, in assay [1], the Kd came to 0.069 nM, the koff is 0.000113 s⁻¹ and the kon amounted to 1.64e+06 M⁻¹ s⁻¹.

B10: Clone with H3_1 (antibody, V domains shown)
VH: B1 VH with K28T, R31S, V32Y, V34M, R99K, Y102F
VL: B1 VL
For the molecule B10, in assay [1], the Kd is 0.242 nM, the koff is 0.000478 s⁻¹ and the kon was 1.97e+06 M⁻¹ s⁻¹.

These data come from US20200216522A1 (DENALI THERAPEUTICS, published 2020).
